Laboratory results taken from article PMC5206904 (DNA repair, 2015).

Target: T1, recombinant ALKBH2 with a streptavidin binding peptide tag (human, UniProt Q6NS38 1-261)
T1 sequence (looked up): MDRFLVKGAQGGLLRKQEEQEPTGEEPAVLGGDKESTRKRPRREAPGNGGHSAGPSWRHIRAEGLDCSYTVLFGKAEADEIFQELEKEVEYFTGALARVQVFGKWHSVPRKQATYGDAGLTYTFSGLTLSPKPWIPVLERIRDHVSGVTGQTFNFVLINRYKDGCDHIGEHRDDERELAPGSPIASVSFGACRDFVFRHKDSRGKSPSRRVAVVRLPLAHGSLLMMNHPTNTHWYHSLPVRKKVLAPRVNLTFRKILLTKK
Experiment: pull-down

- binding result: binds
B1: recombinant PCNA mutant VDK188 (natural protein, UniProt P12004 1-261, looked up)
chain: MFEARLVQGSILKKVLEALKDLINEACWDISSSGVNLQSMDSSHVSLVQLTLRSEGFDTYRCDRNLAMGVNLTSMSKILKCAGNEDIITLRAEDNADTLALVFEAPNQEKVSDYEMKLMDLDVEQLGIPEQEYSCVVKMPSGEFARICRDLSHIGDAVVISCAKDGVKFSASGELGNGNIKLSQTSNAAAEEEAVTIEMNEPVQLTFALRYLNFFTKATPLSSTVTLSMSADVPLVVEYKIADMGHLKYYLAPKIEDEEGS
